Measured values published in IntAct's records for PubMed 20126259.

B1: Serine/threonine-protein kinase RAD53 (Saccharomyces cerevisiae), P22216 (parent)
chain: MENITQPTQQSTQATQRFLIEKFSQEQIGENIVCRVICTTGQIPIRDLSADISQVLKEKRSIKKVWTFGRNPACDYHLGNISRLSNKHFQILLGEDGNLLLNDISTNGTWLNGQKVEKNSNQLLSQGDEITVGVGVESDILSLVIFINDKFKQCLEQNKVDRIRSNLKNTSKIASPGLTSSTASSMVANKTGIFKDFSIIDEVVGQGAFATVKKAIERTTGKTFAVKIISKRKVIGNMDGVTRELEVLQKLNHPRIVRLKGFYEDTESYYMVMEFVSGGDLMDFVAAHGAVGEDAGREISRQILTAIKYIHSMGISHRDLKPDNILIEQDDPVLVKITDFGLAKVQGNGSFMKTFCGTLAYVAPEVIRGKDTSVSPDEYEERNEYSSLVDMWSMGCLVYVILTGHLPFSGSTQDQLYKQIGRGSYHEGPLKDFRISEEARDFIDSLLQVDPNNRSTAAKALNHPWIKMSPLGSQSYGDFSQISLSQSLSQQKLLENMDDAQYEFVKAQRKLQMEQQLQEQDQEDQDGKIQGFKIPAHAPIRYTQPKSIEAETREQKLLHSNNTENVKSSKKKGNGRFLTLKPLPDSIIQESLEIQQGVNPFFIGRSEDCNCKIEDNRLSRVHCFIFKKRHAVGKSMYESPAQGLDDIWYCHTGTNVSYLNNNRMIQGTKFLLQDGDEIKIIWDKNNKFVIGFKVEINDTTGLFNEGLGMLQEQRVVLKQTAEEKDLVKKLTQMMAAQRANQPSASSSSMSAKKPPVSDTNNNGNNSVLNDLVESPINANTGNILKRIHSVSLSQSQIDPSKKVKRAKLDQTSKGPENLQFS
partner: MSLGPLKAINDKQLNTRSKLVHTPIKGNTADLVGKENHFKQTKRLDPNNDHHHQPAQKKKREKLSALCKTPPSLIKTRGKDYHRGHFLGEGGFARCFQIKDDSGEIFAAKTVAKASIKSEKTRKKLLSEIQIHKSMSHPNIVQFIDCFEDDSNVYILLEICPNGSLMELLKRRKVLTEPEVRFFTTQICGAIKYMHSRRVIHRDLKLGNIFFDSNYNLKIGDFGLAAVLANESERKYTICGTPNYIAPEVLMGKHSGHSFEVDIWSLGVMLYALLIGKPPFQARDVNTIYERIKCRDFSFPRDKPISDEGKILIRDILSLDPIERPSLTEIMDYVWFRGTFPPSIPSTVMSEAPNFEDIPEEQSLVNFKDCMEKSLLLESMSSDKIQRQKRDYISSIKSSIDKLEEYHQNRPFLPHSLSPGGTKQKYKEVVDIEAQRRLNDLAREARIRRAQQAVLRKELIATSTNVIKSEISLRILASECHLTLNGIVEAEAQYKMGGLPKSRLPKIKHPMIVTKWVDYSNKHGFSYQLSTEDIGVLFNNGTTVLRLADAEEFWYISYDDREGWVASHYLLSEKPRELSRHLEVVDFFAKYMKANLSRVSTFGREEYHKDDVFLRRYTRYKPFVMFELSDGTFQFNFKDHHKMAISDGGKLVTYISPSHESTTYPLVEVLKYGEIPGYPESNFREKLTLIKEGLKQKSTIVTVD

Variants of: B1
Settings: with cdc5_yeast CDC5, P32562

Variant	effect of a mutation on the interaction
R70A;R605A	disrupting interaction
